Values joined by “and” are separate entries in the source; they are usually repeats but may differ in a detail not shown here. Identical values can stand only once.
B1: CitAP-BsLA (enzyme)
chain: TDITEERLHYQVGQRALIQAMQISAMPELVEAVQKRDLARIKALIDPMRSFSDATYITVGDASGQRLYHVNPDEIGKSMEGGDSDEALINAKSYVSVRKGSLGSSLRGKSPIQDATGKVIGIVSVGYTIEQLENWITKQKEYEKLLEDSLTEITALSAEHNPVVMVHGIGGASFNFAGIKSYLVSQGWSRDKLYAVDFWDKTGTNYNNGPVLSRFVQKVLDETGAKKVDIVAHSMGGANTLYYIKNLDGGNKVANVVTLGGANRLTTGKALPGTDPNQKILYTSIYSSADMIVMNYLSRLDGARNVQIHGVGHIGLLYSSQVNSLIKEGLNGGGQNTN

Experiments:
[1] = biological target: T1, Bacillus subtilis lipase A (BsLA) (Bacillus subtilis, UniProt P37957); test: hydrolysis of p-NPB by purified enzyme, p-nitrophenolate release at […] nm (specific activity); format: biochemical
T1 construct: gene estA; purified wild-type BsLA

[2] = biological target: the molecule itself; test: SAXS
[3] = biological target: the molecule itself; test: AUC; sedimentation velocity, CitAP-BsLA 0.5 mg/ml, 10 mM glycine buffer pH 10, 10 mM NaCl, with or without 1 mM sodium citrate, 25 °C, 40 krpm; c(s) with Bayesian prior, discrete species of known mass; monomer, dimer and higher oligomers

Row | Molecule | hydrolysis of p-NPB by purified enzyme, p-nitrophenolate release at 410 nm (spec) [1] | Kd [2] | stoichiometry N [3]
1 | CCCC(=O)Oc1ccc([N+](=O)[O-])cc1 [p-nitrophenylbutyrate] | 181 ± 3 U/mg |  | 
2 | B1 |  | 24 µM and 29 µM | 2

— article PMC5316958, “A combination of mutational and computational scanning guides the design of an artificial ligand-binding controlled lipase” (Scientific Reports, 2017)
